The record followed here is PMC4761961, “In silico selection of an aptamer to estrogen receptor alpha using computational docking employing estrogen response elements as aptamer-alike molecules”.

T1 sequence (P03372 whole entry): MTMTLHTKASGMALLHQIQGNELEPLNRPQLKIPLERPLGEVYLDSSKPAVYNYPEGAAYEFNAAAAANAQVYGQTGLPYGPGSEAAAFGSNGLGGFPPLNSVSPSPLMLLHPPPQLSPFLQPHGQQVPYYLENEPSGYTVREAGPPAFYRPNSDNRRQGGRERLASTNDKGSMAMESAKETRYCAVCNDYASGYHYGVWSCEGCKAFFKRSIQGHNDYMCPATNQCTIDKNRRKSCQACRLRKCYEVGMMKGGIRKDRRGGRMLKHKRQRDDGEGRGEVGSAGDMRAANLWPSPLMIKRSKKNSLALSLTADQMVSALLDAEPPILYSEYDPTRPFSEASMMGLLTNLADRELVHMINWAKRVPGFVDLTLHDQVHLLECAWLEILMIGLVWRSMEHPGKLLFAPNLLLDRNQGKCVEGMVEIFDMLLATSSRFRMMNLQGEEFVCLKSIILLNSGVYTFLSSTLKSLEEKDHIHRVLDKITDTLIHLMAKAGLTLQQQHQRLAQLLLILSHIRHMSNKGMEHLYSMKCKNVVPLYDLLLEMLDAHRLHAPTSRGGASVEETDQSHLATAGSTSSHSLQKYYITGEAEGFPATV

The first series concerns the target T1, Estrogen receptor alpha (ERα) (human, UniProt P03372 1-595). The series is described as follows: ITC; ITC: 10 mM Tris-HCl pH 8.0, 25 °C, 1 µM ERα in cell, 10 µM RNA in syringe; ELISA: 100 nM biotinylated ERaptR4, 2 h; western blot: 1 µM ERaptR4. The following applies: chain copies: 2; hairpin. In general terms: ITC needs no label: the signal is the heat of the interaction.
In turn, GGGGUCAAGGUGACCCC (structured_RNA) [ERaptR4] had a Ka of 1.02e+08 M⁻¹.

For another series, the target named is T1, Estrogen receptor alpha (ERα). The series is described as above. The following applies: chain copies: 2; hairpin. This is another data set of the same source.
In turn, CGGGUCAGGGUGACCUC (structured_RNA) [ERaptR8] displayed a Ka of 8.88e+07 M⁻¹.

CCAGUCAGUCUGAUUAU (structured_RNA) [ERaptR14]: the Ka is 7.42e+07 M⁻¹.

As for CAGGUCAAGGCGAUCUU (structured_RNA) [ERaptR13], the Ka turned out to be 8.96e+07 M⁻¹.

As for UUGGUCAGGCUGAUCUC (structured_RNA) [ERaptR16], the Ka is 9.4e+07 M⁻¹.

Regarding UGGUCAGGCUGGUCUCA (structured_RNA) [ERaptR9], the Ka amounted to 9.46e+07 M⁻¹.

For the molecule GAGGUCACUGAGACCAU (structured_RNA) [ERaptR1], the Ka is 9.2e+07 M⁻¹.

For the molecule GCGGUCACCGUCACCUC (structured_RNA) [ERaptR15], the Ka came to 9.25e+07 M⁻¹.

Take CCAGGUCACAGUGACCUG (structured_RNA) [ERaptR2]: the Ka is 7.6e+07 M⁻¹.

As for CGGGUCACGAUGCCCUA (structured_RNA) [ERaptR7], the Ka stood at 4.82e+07 M⁻¹.

AAGGUCACGGUGGCCAC (structured_RNA) [ERaptR5]: the Ka is 6.82e+07 M⁻¹.

In turn, GGGGUCAAGGUCACCGC (structured_RNA) [ERaptR12] came in with a Ka of 8.2e+07 M⁻¹.

Turning to GGGGUCAGCUGUGCCCCG (structured_RNA) [ERaptR18], the Ka turned out to be 9.91e+07 M⁻¹.

In the case of AGGGUCAGGGCCACCUG (structured_RNA) [ERaptR3], the Ka was determined as 5.24e+07 M⁻¹.

Molecule UAGGUCAGUAAGACCUC (structured_RNA) [ERaptR6] gave a Ka of 9.46e+07 M⁻¹.

Molecule AGGGUCAUGGUGACCCU (structured_RNA) [ERaptR11] yielded a Ka of 8.02e+07 M⁻¹.

Take UUGGUCAAGCUGCCCUC (structured_RNA) [ERaptR17]: the Ka turned out to be 1.26e+08 M⁻¹.
